This data set is described as follows: collision cross section of modified peptide (TIMS, N2, iRT-aligned); higher = larger / more extended gas-phase ion. The method, boiled down: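 Collision cross section values rest on the Mason-Schamp equation applied to calibrated, run-aligned mobility data from synthetic peptides. Mobility (1/K0) was calibrated with three reference ions and aligned per run to the median iRT peptide deviation, and 1–3 technical replicates of the most abundant feature per charge state were averaged. Data came from a timsTOF Pro/HT in dda-PASEF mode (nitrogen, ~2.4 mbar) after a 120-min nanoflow C18 gradient at 60 °C.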

[1] abbreviates: charge state: 2, modification: Phospho (Y).
Setting [2] is: charge state: 3, modification: Acetyl (K).
[3] abbreviates: charge state: 2, modification: Succinyl.
[4] abbreviates: charge state: 3, modification: Succinyl.
Setting [5] is: charge state: 2, modification: Methyl (R).
The mark [6] stands for this setting: charge state: 3, modification: Methyl (R).
The mark [7] stands for this setting: charge state: 2, modification: Nitro (Y).
The mark [8] stands for this setting: charge state: 2, modification: Acetyl (K).
Where [9] appears, read: charge state: 2, modification: GlyGly (K).
The mark [10] stands for this setting: charge state: 2, modification: Crotonyl.
Setting [11] is: charge state: 3, modification: Crotonyl.
The mark [12] stands for this setting: charge state: 2, modification: Butyryl.
[13] abbreviates: charge state: 2, modification: Biotin.
Setting [14] is: charge state: 3, modification: Biotin.
Setting [15] is: charge state: 2, modification: Methyl (K).
Setting [16] is: charge state: 3, modification: Methyl (K).
The mark [17] stands for this setting: charge state: 2, modification: Malonyl.
Setting [18] is: charge state: 3, modification: Trimethyl (K).
Setting [19] is: charge state: 2, modification: Dimethyl (K).
Setting [20] is: charge state: 3, modification: Dimethyl (K).
The mark [21] stands for this setting: charge state: 2, modification: hydroxyisobutyryl.
The mark [22] stands for this setting: charge state: 2, modification: Trimethyl (K).
[23] abbreviates: charge state: 3, modification: GlyGly (K).

± gives the standard deviation.

Regarding “GPQNATDSYVHK [_GPQNATDSY(Phospho (Y))VHK_]”, the collision cross section runs as follows: under setting [1], 396.29 ± 0.77 Å²; (charge state: 3, modification: Phospho (Y)) 452.94 ± 1.8 Å².

On to “IDLPAENSNSETIIITGKR [_IDLPAENSNSETIIITGK(Acetyl (K))R_]”, for which, under setting [2], the collision cross section came out at 569.63 Å².

“SLEEEGAAHSGKR [_SLEEEGAAHSGK(Succinyl)R_]” yielded a collision cross section under setting [3] of 416.07 ± 1.8 Å² and a collision cross section under setting [4] of 470.94 ± 2.7 Å².

SRFYSGFNSR [_SR(Methyl (R))FYSGFNSR_]: the collision cross section by setting is: under setting [5], 375.99 ± 1.6 Å²; under setting [6], 436.64 ± 3.4 Å².

The sequence “HELQANCYEEVKDR [_HELQANCYEEVK(hydroxyisobutyryl)DR_]” had a collision cross section (charge state: 3, modification: hydroxyisobutyryl) of 504.98 ± 2.9 Å².

For “DLTTAGAVTQCYR [_DLTTAGAVTQCY(Nitro (Y))R_]”, the collision cross section reads like this: under setting [7], 399.32 ± 0.8 Å²; (charge state: 3, modification: Nitro (Y)) 462.24 Å².

“ASNAAVKLAESK [_ASNAAVK(Acetyl (K))LAESK_]” yielded a collision cross section under setting [8] of 371.36 ± 0.81 Å².

Turning to “GADFLVTEVENGGSLGSKK [_GADFLVTEVENGGSLGSK(GlyGly (K))K_]”, the collision cross section under setting [9] is 505.48 Å².

For “VYIASSSGSTAIKK [_VYIASSSGSTAIK(Crotonyl)K_]”, the collision cross section under setting [10] turned out to be 419.06 ± 0.81 Å² and the collision cross section under setting [11] was 505.65 ± 0.46 Å².

Turning to “SGNLTEDDKHNNAK [_SGNLTEDDK(Succinyl)HNNAK_]”, the collision cross section by setting is: under setting [3], 424.64 ± 1.1 Å²; under setting [4], 478.73 ± 2.5 Å².

“TEVLSPNSKVESK [_TEVLSPNSK(Butyryl)VESK_]”: the collision cross section is given as 418.57 ± 0.77 Å² under setting [12] and 463.23 ± 20 Å² (charge state: 3, modification: Butyryl).

On to “AGQKLIDVNHYAK [_AGQK(Acetyl (K))LIDVNHYAK_]”, for which the collision cross section was 429.91 ± 1.7 Å² under setting [8] and 479.89 ± 2.5 Å² under setting [2].

For IISSIEQKEENK [_IISSIEQK(Biotin)EENK_], the collision cross section by setting is: under setting [13], 422.44 ± 3 Å²; under setting [14], 481.73 ± 1.6 Å².

For the sequence “LEEVTGKLQVAR [_LEEVTGK(Methyl (K))LQVAR_]”, the collision cross section is recorded as 393.19 ± 1.7 Å² under setting [15] and 474.94 ± 3.5 Å² under setting [16].

Turning to “DKALPLEAEVAPVK [_DK(Methyl (K))ALPLEAEVAPVK_]”, the collision cross section is recorded as 408.8 ± 1.9 Å² under setting [15] and 507.57 ± 2 Å² under setting [16].

“GEGGFGGRGGGR [_GEGGFGGR(Methyl (R))GGGR_]”: the collision cross section runs as follows: under setting [5], 345.55 ± 1 Å²; under setting [6], 413.1 Å².

Under setting [17], VGEFSGANKEK [_VGEFSGANK(Malonyl)EK_] displayed a collision cross section of 354.12 ± 1.7 Å².

Consider “AGQKLIDVNHYAK [_AGQK(Trimethyl (K))LIDVNHYAK_]”, for which the collision cross section under setting [18] was determined as 474.3 ± 1.8 Å².

With “VLDSGAPIKIPVGPETLGR [_VLDSGAPIK(Acetyl (K))IPVGPETLGR_]”, the collision cross section was determined as 463.33 ± 3.4 Å² under setting [8] and 505.97 Å² under setting [2].

Turning to “DSSPTTNSKLSALQR [_DSSPTTNSK(Crotonyl)LSALQR_]”, the collision cross section by setting is: under setting [10], 436.18 ± 0.54 Å²; under setting [11], 499.72 ± 1.3 Å².

In turn, “GFALVGVGSEASSKK [_GFALVGVGSEASSK(Malonyl)K_]” came in with a collision cross section under setting [17] of 414.22 ± 0.58 Å².

For the sequence “SLFFGGKGAPLQR [_SLFFGGK(Dimethyl (K))GAPLQR_]”, the collision cross section was determined as 408.95 ± 0.54 Å² under setting [19] and 451.66 ± 1.6 Å² under setting [20].

IGNSYFKEEK [_IGNSYFK(Crotonyl)EEK_] gave a collision cross section under setting [10] of 378.81 ± 0.89 Å².

Regarding “AAQASDLEKIHLDEK [_AAQASDLEK(Methyl (K))IHLDEK_]”, the collision cross section under setting [15] was 449.24 Å² and the collision cross section under setting [16] is given as 507.05 ± 2 Å².

“LQAAYAGDKADDIQK [_LQAAYAGDK(Methyl (K))ADDIQK_]”: the collision cross section by setting is: under setting [15], 430.05 ± 1.4 Å²; under setting [16], 477.97 ± 2.6 Å².

Regarding “VYVGNLGTGAGK [_VY(Nitro (Y))VGNLGTGAGK_]”, the collision cross section under setting [7] amounted to 354.85 ± 1.5 Å².

In turn, “RGATPPAPPRR [_R(Citrullination (R))GATPPAPPRR_]” returned a collision cross section (charge state: 3, modification: Citrullination (R)) of 462.57 ± 1.3 Å².

For the sequence “YILIPASQQPK [_Y(Phospho (Y))ILIPASQQPK_]”, the collision cross section under setting [1] is given as 405.41 ± 0.64 Å².

In turn, “TGGTQTDLFTCGKCK [_TGGTQTDLFTCGK(Succinyl)CK_]” had a collision cross section under setting [3] of 437.09 Å².

As for “SSFAYKDQNENR [_SSFAYK(hydroxyisobutyryl)DQNENR_]”, under setting [21], the collision cross section amounted to 405.04 ± 0.3 Å².

Take “VSPASSVDSNIPSSQGYKK [_VSPASSVDSNIPSSQGYK(Gluratylation)K_]”: the collision cross section was 466.49 ± 3 Å² (charge state: 2, modification: Glutarylation) and 552.93 ± 0.14 Å² (charge state: 3, modification: Glutarylation).

For “VSFLSALEEYTK [_VSFLSALEEY(Nitro (Y))TK_]”, the collision cross section under setting [7] came to 400.94 ± 0.73 Å².

Turning to “SLKLNTAEDAK [_SLK(Trimethyl (K))LNTAEDAK_]”, the collision cross section is, setting by setting: under setting [22], 378.59 ± 0.02 Å²; under setting [18], 461.43 ± 2.4 Å².

Sequence “LLEQKTQESQK [_LLEQK(hydroxyisobutyryl)TQESQK_]” came in with a collision cross section under setting [21] of 401.39 ± 0.81 Å².

In the case of “DASTLQSQKAEGTGDAK [_DASTLQSQK(Dimethyl (K))AEGTGDAK_]”, the collision cross section runs as follows: under setting [19], 438.33 ± 1.3 Å²; under setting [20], 482.19 ± 4.5 Å².

In the case of “DVNAAIAAIKTK [_DVNAAIAAIK(Dimethyl (K))TK_]”, the collision cross section is listed as 394.29 ± 0.87 Å² under setting [19] and 456.19 ± 1.7 Å² under setting [20].

With FDDTNPEKEEAK [_FDDTNPEK(Biotin)EEAK_], the collision cross section was determined as 416.55 ± 1.6 Å² under setting [13] and 504.96 ± 0.34 Å² under setting [14].

On to ILDLKTGTVK [_ILDLK(Butyryl)TGTVK_], for which the collision cross section under setting [12] is on record as 361.67 ± 1.2 Å².

For “SPDEAYAIAKK [_SPDEAYAIAK(Trimethyl (K))K_]”, the collision cross section is, setting by setting: under setting [22], 381.12 ± 1.2 Å²; under setting [18], 449.09 Å².

For the setting “charge state: 3, modification: HexNAc (ST)”, “TTLTSDESVKDHTTAGR [_TTLTS(HexNAc (ST))DESVKDHTTAGR_]” displayed a collision cross section of 545.39 ± 0.18 Å².

“LVLPSQAQARLPSGEVVK [_LVLPSQAQAR(Methyl (R))LPSGEVVK_]” had a collision cross section under setting [6] of 522.24 ± 0.66 Å².

Turning to “GGPGSTLSFVGKR [_GGPGSTLSFVGK(Trimethyl (K))R_]”, the collision cross section reads like this: under setting [22], 401.16 Å²; under setting [18], 424.62 ± 2.4 Å².

Consider ASEALLKQLK [_ASEALLK(GlyGly (K))QLK_], for which the collision cross section under setting [9] is given as 378.14 ± 0.54 Å² and the collision cross section under setting [23] worked out at 443.25 ± 0.74 Å².

Take DHLSDKESK [_DHLSDK(Biotin)ESK_]: the collision cross section by setting is: under setting [13], 368.95 Å²; under setting [14], 429.55 Å².

As to LLEEEDSKLK [_LLEEEDSK(GlyGly (K))LK_], the collision cross section is, setting by setting: under setting [9], 386.87 ± 0.88 Å²; under setting [23], 453.7 ± 1.6 Å².

On to ITASLCDLKSR [_ITASLCDLK(Succinyl)SR_], for which the collision cross section under setting [3] worked out at 384.23 ± 0.76 Å².

Consider “VNIGQGSHPQKVK [_VNIGQGSHPQK(GlyGly (K))VK_]”, for which the collision cross section reads like this: under setting [9], 422.43 ± 1.1 Å²; under setting [23], 490.21 ± 0.72 Å².

Values taken from the supplement of paper PMC10598134.
